Residue numbers refer to the chain shown, from its start. Bounds are passed on as bounds.

The target of assay [1] is T1, human BMP6 (R&D Systems, Cat #507-BP) (human, UniProt P22004 375-513, limits assumed).
T1 construct: Bought protein (R&D Systems 507-BP or 507-BP/CF); also called hBMP6; hBMP-6
T1 sequence: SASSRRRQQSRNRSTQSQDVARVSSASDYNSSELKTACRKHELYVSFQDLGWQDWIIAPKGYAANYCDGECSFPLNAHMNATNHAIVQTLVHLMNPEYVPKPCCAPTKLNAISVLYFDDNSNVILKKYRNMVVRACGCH
As to the kind of experiment: SPR (MASS-1), mAb captured on anti-human Fc, hBMP6 in solution, 37 C; no dissociation observed, kd manually fixed at 1.00E-05; 37 C; no dissociation observed, kd fixed at 1.00E-05. Here is the method:
(§1) Equilibrium dissociation constants (KD values) for human and mouse BMP6 binding to purified anti-BMP6 monoclonal antibodies of this invention were determined using a real-time surface plasmon resonance (SPR) biosensor instrument, MASS-1. All binding studies were performed in 10 mM HEPES, 150 mM NaCl, 3 mM EDTA, 1 μg/mL Heparin, and 0.05% v/v Surfactant Tween-20, pH 7.4 (HBS-EHT) running buffer at 25° C. and 37° C. The HCA sensor surface was first derivatized by amine coupling the monoclonal mouse anti-human Fc antibody (GE, #BR100839) and anti-BMP6 monoclonal antibodies were individually captured. Different concentrations of human BMP6 reagents (hBMP6; R&D Systems, Cat #507-BP; 60 nM-0.94 nM; 4-fold serial dilution) or mouse BMP6 (mBMP6; R&D Systems, Cat #6325-BM; 60 nM and 15 nM) prepared in HBS-EHT running buffer were injected over the captured anti-BMP6 monoclonal antibody for 4 minutes at a flow rate of 30 μL/minute, while the dissociation of BMP6 reagent bound to captured anti-BMP6 monoclonal antibody was monitored for 10 minutes in HBS-EHT running buffer. Kinetic association (kₐ) and dissociation (kd) rate constants were determined by fitting the real-time binding sensorgrams to a 1:1 binding model with mass transport limitation using Scrubber 2.0c software. […]

The target of assay [2] is T1, human BMP6 (R&D Systems, Cat #507-BP). As to the kind of experiment: competition ELISA, antibody titrated against 2.5 nM biot-hBMP6, plate-coated hHJV-hFc as competitor. Here is the method: Experiments were carried out using the following procedure. Receptors were coated in Hank's Balanced Salt Solution (HBSS) separately at a concentration of 5 μg/mL for hHJV-hFc and […] for hActR2a-hFc on a 96-well microtiter plate overnight at 4° C. […] In other microtiter plates, a constant amount of 2.5 nM of biot-BMP6 (for HJV capture) or 1.5 nM biot-BMP6 (for ActR2a capture) protein was titrated with anti-BMP6 antibodies or isotype control antibodies ranging from 5.1 pM to 300 nM in serial dilution in HBSS with 1.0% BSA and […] heparin. These antibody-protein complexes, after a one-hour incubation, were transferred to the microtiter plate coated with hHJV-hFc or hActR2a-hFc. After two hours of incubation at room temperature, the wells were washed, and plate-bound biot-BMP6 was detected with neutravidin conjugated with horseradish peroxidase (HRP) (Thermo Scientific, Cat #31030). The plates were then developed using TMB substrate solution (BD Biosciences, Cat #555214) according to manufacturer's recommendation and absorbance at 450 nm was measured on a Victor X5 plate reader.
Data analysis was performed using a sigmoidal dose-response model within Prism™ software (GraphPad). […]
On the technique in general: In an ELISA, binding on a coated surface is turned into a signal by an enzyme label.

The target in another assay is T2, Human BMP3b (human, UniProt P55107 369-478, limits assumed).
T2 sequence (looked up): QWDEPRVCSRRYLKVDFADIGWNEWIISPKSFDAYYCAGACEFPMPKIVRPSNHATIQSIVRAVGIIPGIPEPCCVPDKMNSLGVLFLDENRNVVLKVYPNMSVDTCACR
As to the kind of experiment: BLI (Octet HTX), mAb captured on Protein A sensor, 100 nM ligand, 25 C. The method, then:
(§2) Binding cross-reactivity of anti-BMP6 monoclonal antibodies to BMP6 family members, (Human: BMP6, BMP5, BMP7, BMP8A, BMP9, BMP10, BMP12, BMP14, BMP3b, Activin A, and GDF3 and mouse: BMP6 and GDF6) was determined using a real-time Bio-Layer Interferometry (BLI) biosensor using Octet HTX instrument. All binding studies were performed in 10 mM HEPES, 150 mM NaCl, 3 mM EDTA, 1 mg/mL BSA, 50 μg/mL Heparin, and 0.05% v/v Surfactant Tween-20, pH 7.4 (HBS-EBHT) buffer at 25° C. with the plate shaking at a speed of 1000 rpm. To assess binding cross-reactivity, Protein A coated Octet biosensor (Pall ForteBio Corp., #18-5010) was first dipped in wells containing […] of anti-BMP6 monoclonal antibodies for 4 minutes followed by submerging in wells containing 100 nM of different BMP6 family members for 4 minutes. The biosensors were washed in HBS-EBHT buffer in between every step of the experiment. At the end of each cycle, the Protein A biosensor was regenerated using three alternate 5 second dips in 10 mM Glycine pH 2.0 and 10 second dip HBS-EBHT buffer. The real-time binding response was monitored during the course of the experiment and the binding response at the end of every step was recorded and tabulated as shown in Tables 8A and 8B.
(In general: Biolayer interferometry detects binding as a change in optical thickness at a sensor tip.)

In assay [3] the target is T1, human BMP6 (R&D Systems, Cat #507-BP). As to the kind of experiment: SPR (MASS-1), mAb captured on anti-human Fc, hBMP6 in solution, 25 C; 25 C. Here is the method: as §1
In another assay the target is T3, Human GDF3 (human, UniProt Q9NR23 251-364).
T3 sequence (looked up): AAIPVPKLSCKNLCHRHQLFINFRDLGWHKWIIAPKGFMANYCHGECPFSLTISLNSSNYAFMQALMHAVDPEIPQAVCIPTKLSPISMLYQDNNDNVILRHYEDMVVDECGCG
The assay is described as follows: BLI (Octet HTX), mAb captured on Protein A sensor, 100 nM ligand, 25 C. Here is the method:
as §2

B1: H4H17871P (antibody, V domains shown)
VH: EVQLVESGGGLVQPGGSLRLSCAASGFTFNNYAMSWVRQAPGKGLEWVSAISGSGDSTYYADSVKGRFTISRDNSKNTLYLQMNSLRAEDTAVYYCAKRSRSSPFDPWGQGTLVTVSS
VL: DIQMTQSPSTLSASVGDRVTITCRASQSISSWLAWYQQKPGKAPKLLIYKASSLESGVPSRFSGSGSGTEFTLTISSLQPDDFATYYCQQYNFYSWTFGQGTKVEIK
notes: Fully human antibody; also called anti-BMP6 monoclonal antibody; BMP6 antibody of the invention
Consider B1, for which the koff (in general, a measure of how fast the partners let go of each other) in assay [1] is at most 1e-05 s⁻¹. In addition, the IC50 (as a rule, the concentration needed to halve the response being measured) in assay [2] came to 1.61 nM. In the assay with Human BMP3b, this molecule yielded a binding response of 0.19 nm. For the same molecule, the Kd (usually the free concentration of one partner at which half of the binding sites on the other are occupied at equilibrium, for simple one-to-one binding) in assay [3] is 0.195 nM.

B2: H4H17855P (antibody, V domains shown)
VH: B1 VH with N30S, N31S, D56G, S57R, A61T, I70M, S100P, R101Y, S102N
VL: EIVLTQSPGTLSLSPGEGATLSCRASQSVSSSYLAWYQQKPGQAPRLLIYGASSRATGIPDRFSGSGSGTDFTLTISRLEPEDFVVYYCQHFGGTPFTFGGGTKVEIK
notes: as for B1
As for B2, the binding response with Human GDF3 was 0.03 nm.

The values are drawn from patent US20220251184A1 (Regeneron, published 2022).
